{"source": "patent US6537785", "key": {"RNAse B": {"target": "RNAse B (UniProt P61823)", "sequence (P61823 27-150)": "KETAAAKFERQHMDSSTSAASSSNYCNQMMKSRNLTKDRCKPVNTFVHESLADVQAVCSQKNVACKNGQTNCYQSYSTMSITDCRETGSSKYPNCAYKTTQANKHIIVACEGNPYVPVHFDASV"}, "uteroferrin": {"target": "uteroferrin (UniProt P09889)", "sequence (P09889 22-340)": "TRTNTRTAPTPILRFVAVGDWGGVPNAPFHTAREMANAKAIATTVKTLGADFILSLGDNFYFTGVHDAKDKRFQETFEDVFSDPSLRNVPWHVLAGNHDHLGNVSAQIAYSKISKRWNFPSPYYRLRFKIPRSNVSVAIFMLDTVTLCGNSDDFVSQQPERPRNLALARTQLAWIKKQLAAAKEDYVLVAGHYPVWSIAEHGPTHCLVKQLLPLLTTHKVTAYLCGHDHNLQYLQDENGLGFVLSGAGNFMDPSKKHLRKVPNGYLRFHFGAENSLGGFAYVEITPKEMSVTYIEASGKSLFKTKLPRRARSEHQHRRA"}}, "data": [{"substance": "bovine GlcNAc-phosphotransferase (UDP-N-acetylglucosamine: lysosomal enzyme N-Acetylglucosamine-1-phosphotransferase)", "values": [{"measurement": "Km (transfer of GlcNAc-1-P to glycoprotein acceptor)", "setting": "RNAse B", "value": "the Km was not reached at the solubility limit of the protein (at 600 µM)"}, {"measurement": "Km (transfer of GlcNAc-1-P to glycoprotein acceptor)", "setting": "cathepsin D", "value": "Kms below 20 µM"}, {"measurement": "Km (transfer of GlcNAc-1-P to glycoprotein acceptor)", "setting": "uteroferrin", "value": "Kms below 20 µM"}]}]}
